Data taken from patent US20200299415A1.
pKd: −log10 of the molar value.

Tests used:
[1] = target: cell surface receptors in membranes prepared from SH-SY5Y cells; assay: radioligand saturation binding on SH-SY5Y cell membranes; lower end of range
[2] = target: cell surface receptors in membranes prepared from SH-SY5Y cells; assay: radioligand saturation binding on SH-SY5Y cell membranes; upper end of printed range
[3] = target: cell surface receptors in membranes prepared from SH-SY5Y cells; assay: radioligand saturation binding on SH-SY5Y cell membranes, filtration, nonlinear regression; lower end of range
[4] = target: cell surface receptors in membranes prepared from SH-SY5Y cells; assay: radioligand saturation binding on SH-SY5Y cell membranes, filtration, nonlinear regression; upper end of printed range

## [3H][Dmt1]DALDA (2',6'-Dmt-D-Arg-Phe-Lys-NH2, tritiated) (peptide)
[1]
  Bmax (fmol/mg protein): 88
[2]
  Bmax (fmol/mg protein): 104
[3]
  pKd: 10.06
[4]
  pKd: 9.83
